“Also recorded” adds a separate entry of the source.
Tests used:
[1] = system: astrocytic MCP-1 expression; test: Northern blot analysis of MCP-1 RNA in stimulated human astrocytes; assay type: cell-based
Description: FIG. 1A—Total RNA was extracted from T lymphoblastoid HUT 78 cells (ATCC), and from variously treated human astrocytes. Ten μg per lane were then run on a 1% agarose-6% formaldehyde gel. Following transfer of RNA to nitrocellulose, the blot was probed with the full-length cDNA for MCP-1, and subsequently, RANTES. RNA from untreated astrocytes was run in lanes 2 and 4. […] Astrocytic expression of RANTES was not detected.
FIG. 1B—Similar experience except that RNA from HUT 78 cells (lane 1) was compared to RNA from astrocytes that were unstimulated (lane 2) or stimulated for 2 hr with 100 nM Tat (lane 3), 25 μM TPCK followed by 100 nM Tat (lane 4) or 25 μM TPCK (lane 5).
Brain tissue from 12-14 wk human fetuses was obtained in accordance with NIH guidelines. The tissue was mechanically disrupted by aspiration through a 19-gauge needle, washed in Eagle's minimal essential medium (EMEM) and then distributed into tissue culture flasks. Cells were maintained in EMEM containing 10% fetal bovine serum, 2 mM L-glutamine and 5 μg/ml gentamicin. Several days later, flasks were placed into an orbital incubator shaker at 37° C. and 210 rpm for 6 hr. Non-adherent cells were removed. A portion of the adherent cells were later stained with an antibody to glial fibrallary acidic protein and only those cultures which were >95% positive were used. […]

[2] = system: astrocytic release of MCP-1; test: Immunoassay (ELISA) and Western blot of MCP-1 in astrocyte supernatants; assay type: cell-based, human
Description: FIG. 2A—Astrocytes were grown to near confluency in […]. Each well contained 10^6 cells in 1 ml medium. Medium was then changed and astrocytes were stimulated with exogenous Tat in doses ranging from 0.01 to 1.0 μM. Twenty hr later, samples were taken for analysis by immunoassay (R&D Systems). […] Data are shown as means +S.E. for three replicates.
FIG. 2B—Similar experiment except that astrocytes were stimulated with 100 nM Tat or with an equivalent amount of Tat that had first been either digested with tripsin (Tat-tr) or immunoabsorbed (Tat-im).
FIG. 3—Western blot analysis of MCP-1 in astrocyte supernatants. In lanes 2-7, 50 μg of protein from variously treated astrocyte supernatants were run on a 15% Tris/Glycine denaturing gel. Three ng of non-glycosylated recombinant MCP-1 (R&D Systems) were run in lane 1 as a control. Following protein transfer to nitrocellulose, the blot was probed with a polyclonal antibody with recognized human MCP-1 (R&D Systems). After washing, an appropriate secondary antibody was applied (horse radish peroxidase conjugated anti-goat, [Santa-Cruz Biotechnology]) and electrochemilurninescence (Amersham) was used to visualize the bands. […] The lower arrow represents a band, which runs with an apparent molecular mass of 9 kDa while the upper band, of slighter high molecular mass, is likely to represent MCP-1, which has been altered by the addition of O-linked carbohydrates. Both forms of MCP-1 are active in vitro.
Astrocytes (10^6 per 1 ml medium) were stimulated with 100 nM HIV-1IIIB gp41 (Intracel) or 100 nM HIV-1IIB gp 120 (Intracel), and supernantants were assessed 24 hr. later by immunoassay (R&D Systems).
Trypsin digestion of Tat was performed by the addition of 25 μl of 0.25% trypsin per μg of Tat. The mixture was then incubated for 4 hr. before the 1:1 addition of soybean tripsin inhibitor (Sigma).
Immunoabsorption of Tat was performed as described previously by Magnusson et al. (1995). Briefly, a Tat specific monoclonal antibody (Intracel) was bound to protein A-sepharose (Pharmacia), washed, and then incubated with Tat for 60 min at room temperature, followed by centrifugation.
(§1) To determine whether increased expression of MCP-1 would correlate with increased protein synthesis or release, we next analyzed the supernatants of Tat treated astrocytes by ELISA and Western blot. […] This increase was specific in that astrocytic release of RANTES, MIP-1α and MIP-1β was not observed.

astrocytes = test: Astrocyte proliferation assay (tritiated thymidine); assay type: cell-based, human; settings: Tat 10-1000 nM, twenty hr after administration
Description: Astrocytes were grown in 96 well plates. At 70% confluency, cells were treated with varying concentrations of exogenous Tat, in media, which contained 1 μCi per well of tritiated thymidine (New England Nuclear). […] Filters were then dried and placed into scintillation fluid for counting in a Betaplate Apparatus.

[3] = system: astrocytic release of RANTES, MIP-1α and MIP-1β; test: ELISA detection of RANTES, MIP-1α and MIP-1β in astrocyte supernatants; assay type: cell-based, human; settings: Tat treated astrocytes; ELISA detection limit 10 pg/ml
Description: MIP1-1α, MIP-1β and RANTES were detected by ELISA (R&D Systems). These ELISAs could detect concentrations as low as 10 pg/ml. Protein measurements were determined by comparison to a standard curve, run in duplicate with each assay.
as §1

B1: Tat: Highly purified recombinant Tat1-72, HIV-1 encoded transactivator protein (protein, UniProt P04608 1-72, looked up, fragment)
chain: MEPVDPRLEPWKHPGSQPKTACTNCYCKKCCFHCQVCFITKALGISYGRKKRRQRRRAHQNSQTHQASLSKQ
astrocytic MCP-1 expression (MCP-1 encoding RNA) ([1]; 100 nM Tat, 2 or 4 hr stimulation, human astrocytes): increase in astrocytic MCP-1 expression; also recorded: increase in MCP-1 encoding RNA as early as 2 hr | release of MCP-1 after pre-treatment of Tat with trypsin ([2]; 100 nM equivalent of Tat digested with trypsin (Tat-tr)): could be inhibited | release of MCP-1 after immunoabsorption of Tat with a specific antibody ([2]; 100 nM equivalent of immunoabsorbed Tat (Tat-im)): could be inhibited | astrocytic release of MCP-1 ([2]; Tat 0.01 to 1.0 μM, 20 hr, 10^6 cells in 1 ml medium): significant increase in MCP-1 release; also recorded: dose-dependent increase in astrocytic release of MCP-1 | concentrations of Tat sufficient to increase astrocytic MCP-1 release ([2]; human astrocytes): low nanomolar | astrocyte proliferation (astrocytes): no measurable increase in astrocyte proliferation | astrocytic release of RANTES, MIP-1α and MIP-1β [3]: not observed

B2: Tat1-86: Tat1-86 (Intracel), HIV-1 Tat protein (protein, UniProt P04608 1-86, looked up)
chain: MEPVDPRLEPWKHPGSQPKTACTNCYCKKCCFHCQVCFITKALGISYGRKKRRQRRRAHQNSQTHQASLSKQPTSQPRGDPTGPKE
modifications: full-length
notes: Tat1-86 (Intracel), HIV-1 Tat protein
ability to increase astrocytic expression of MCP-1, compared with Tat1-72 ([1]; Tat1-86 (Intracel) versus recombinant Tat1-72): similar

From patent publication US6541208B1, “Diagnostic method for distinguishing HIV-associated dementia from other forms of dementia” (University of Maryland Biotechnology Institute, priority 1998, dated 2003)
